Values of other authors as cited in publication PMC9238359.

Key:
Test in all cases: ITC
STX4 soluble (lacks TMD) = STX4 soluble (lacks TMD) (UniProt Q12846)
STX4 N-terminal peptide = STX4 N-terminal peptide (UniProt Q12846)
[1] = target: STX4 soluble lacking N-terminal peptide (UniProt Q12846)

Substance: Munc18c (from UniProt O00186)
- Kd (STX4 soluble (lacks TMD)): 12 nM
- Kd (STX4 N-terminal peptide): 1500 nM
- Kd [1]: 735 nM
